Measurements published in paper PMC8534766.
Starred links: 1 amine or outer side, 2 acyl side, 3 side chain; linkers in the order of their positions; H or OH if unused. Benzoyl(5-NH,2-NO2) = O=C(c1cc(N[*:1])ccc1[N+](=O)[O-])[*:2]

Target: SP-1, serine protease from Clostridium ramosum DSM1402 (Clostridium ramosum DSM1402)

{ABZ}-IMAR-{Benzoyl(5-NH,2-NO2)-NH2} [ABZ-Ileu-Met-Ala-Arg-ANB-NH2] showed a KM of steady-state cleavage of the substrate by SP-1 (20 nM SP-1, 0.05-2 mM substrate, 20 mM Tris, 300 mM NaCl, 1 mM CaCl2, pH 8, room temperature; Michaelis-Menten fit) of 0.000191 M.
